Measured values reported in article PMC9482650, “Quantitative fragmentomics allow affinity mapping of interactomes” (Nature Communications, 2022).

Molecular target: SNX27, Q96L92
Experiment: holdup assay
Design: key: below the threshold = too weak to quantify, mostly under pKd 3.1 to 4
Conditions: plain residues with an end cap or a label only (N-terminal biotin on a linker: ado-ado)

Binder | pKd
KPGKGSETVV [FZD4, Q9ULV1] | 4.62

Molecular target: T1, NHERF3_3, Q5T2W1
T1 sequence (Q5T2W1 238-333, limits assumed, looked up): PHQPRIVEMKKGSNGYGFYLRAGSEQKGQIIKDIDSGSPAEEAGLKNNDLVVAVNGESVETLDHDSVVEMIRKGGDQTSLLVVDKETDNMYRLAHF
Experiment: holdup assay
Design: key: below the threshold = too weak to quantify, mostly under pKd 3.1 to 4
Conditions: plain residues with an end cap or a label only (N-terminal biotin on a linker: ado-ado)

Binder | pKd
KPGKGSETVV [FZD4, Q9ULV1] | below the threshold

Molecular target: NHERF4_4, Q86UT5
Sequence (Q86UT5 464-550): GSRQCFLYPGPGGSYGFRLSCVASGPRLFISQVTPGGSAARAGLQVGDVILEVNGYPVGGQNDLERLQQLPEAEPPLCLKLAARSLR
Experiment: holdup assay
Design: key: below the threshold = too weak to quantify, mostly under pKd 3.1 to 4
Conditions: plain residues with an end cap or a label only (N-terminal biotin on a linker: ado-ado)

Binder | pKd
KPGKGSETVV [FZD4, Q9ULV1] | below the threshold

Molecular target: T2, SNTG2, Q9NY99
T2 sequence (Q9NY99 68-166, limits assumed, looked up): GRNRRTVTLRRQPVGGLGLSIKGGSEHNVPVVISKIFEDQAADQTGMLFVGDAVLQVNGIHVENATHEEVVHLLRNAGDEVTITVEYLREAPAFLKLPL
Experiment: holdup assay
Design: key: below the threshold = too weak to quantify, mostly under pKd 3.1 to 4
Conditions: plain residues with an end cap or a label only (N-terminal biotin on a linker: ado-ado)

Binder | pKd
KPGKGSETVV [FZD4, Q9ULV1] | 4.26

Molecular target: NHERF4_2, Q86UT5
Sequence (Q86UT5 220-308): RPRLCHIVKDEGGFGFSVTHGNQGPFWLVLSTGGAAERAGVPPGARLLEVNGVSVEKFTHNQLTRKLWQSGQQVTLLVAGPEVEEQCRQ
Experiment: holdup assay
Design: key: below the threshold = too weak to quantify, mostly under pKd 3.1 to 4
Conditions: plain residues with an end cap or a label only (N-terminal biotin on a linker: ado-ado)

Binder | pKd
KPGKGSETVV [FZD4, Q9ULV1] | below the threshold

Molecular target: DLG1_3, Q12959
Sequence (Q12959 457-571): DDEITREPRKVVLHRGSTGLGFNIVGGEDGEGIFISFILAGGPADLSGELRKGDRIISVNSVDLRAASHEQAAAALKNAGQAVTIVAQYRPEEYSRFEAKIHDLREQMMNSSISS
Experiment: holdup assay
Design: key: below the threshold = too weak to quantify, mostly under pKd 3.1 to 4
Conditions: plain residues with an end cap or a label only (N-terminal biotin on a linker: ado-ado)

Binder | pKd
KPGKGSETVV [FZD4, Q9ULV1] | below the threshold

Molecular target: Inadl_3, Q8NI35
Sequence (Q8NI35 359-469): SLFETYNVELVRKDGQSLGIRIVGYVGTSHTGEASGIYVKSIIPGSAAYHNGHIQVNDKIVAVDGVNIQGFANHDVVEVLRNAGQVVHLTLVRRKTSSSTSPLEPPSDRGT
Experiment: holdup assay
Design: key: below the threshold = too weak to quantify, mostly under pKd 3.1 to 4
Conditions: plain residues with an end cap or a label only (N-terminal biotin on a linker: ado-ado)

Binder | pKd
KPGKGSETVV [FZD4, Q9ULV1] | 3.55

Molecular target: AHNAK1, Q09666
Sequence (Q09666 4-100): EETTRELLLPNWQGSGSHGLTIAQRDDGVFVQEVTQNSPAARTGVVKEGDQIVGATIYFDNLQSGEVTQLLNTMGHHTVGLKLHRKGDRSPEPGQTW
Experiment: holdup assay
Design: key: below the threshold = too weak to quantify, mostly under pKd 3.1 to 4
Conditions: plain residues with an end cap or a label only (N-terminal biotin on a linker: ado-ado)

Binder | pKd
KPGKGSETVV [FZD4, Q9ULV1] | below the threshold

Molecular target: T3, DFNB31_1, Q9P202
T3 sequence (Q9P202 135-233, limits assumed, looked up): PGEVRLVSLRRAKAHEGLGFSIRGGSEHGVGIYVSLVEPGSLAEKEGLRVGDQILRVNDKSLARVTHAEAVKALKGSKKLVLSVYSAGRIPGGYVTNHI
Experiment: holdup assay
Design: key: below the threshold = too weak to quantify, mostly under pKd 3.1 to 4
Conditions: plain residues with an end cap or a label only (N-terminal biotin on a linker: ado-ado)

Binder | pKd
KPGKGSETVV [FZD4, Q9ULV1] | 3.91

Molecular target: T4, DLG3_2, Q92796
T4 sequence (Q92796 221-321, limits assumed, looked up): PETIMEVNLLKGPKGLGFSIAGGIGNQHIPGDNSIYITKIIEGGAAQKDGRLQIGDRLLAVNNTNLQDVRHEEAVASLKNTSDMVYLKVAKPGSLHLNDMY
Experiment: holdup assay
Design: key: below the threshold = too weak to quantify, mostly under pKd 3.1 to 4
Conditions: plain residues with an end cap or a label only (N-terminal biotin on a linker: ado-ado)

Binder | pKd
KPGKGSETVV [FZD4, Q9ULV1] | 4.77

Molecular target: T5, SIPA1L2, Q9P2F8
T5 sequence (Q9P2F8 945-1036, limits assumed, looked up): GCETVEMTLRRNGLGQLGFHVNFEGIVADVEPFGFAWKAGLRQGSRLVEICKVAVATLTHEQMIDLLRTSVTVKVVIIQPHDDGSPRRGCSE
Experiment: holdup assay
Design: key: below the threshold = too weak to quantify, mostly under pKd 3.1 to 4
Conditions: plain residues with an end cap or a label only (N-terminal biotin on a linker: ado-ado)

Binder | pKd
KPGKGSETVV [FZD4, Q9ULV1] | below the threshold

Molecular target: T6, RAPGEF6, Q8TEU7
T6 sequence (Q8TEU7 525-625, limits assumed, looked up): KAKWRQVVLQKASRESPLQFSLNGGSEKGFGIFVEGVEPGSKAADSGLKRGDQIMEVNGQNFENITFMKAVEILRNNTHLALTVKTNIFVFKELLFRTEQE
Experiment: holdup assay
Design: key: below the threshold = too weak to quantify, mostly under pKd 3.1 to 4
Conditions: plain residues with an end cap or a label only (N-terminal biotin on a linker: ado-ado)

Binder | pKd
KPGKGSETVV [FZD4, Q9ULV1] | below the threshold

Molecular target: LDB3, O75112
Sequence (O75112 1-94): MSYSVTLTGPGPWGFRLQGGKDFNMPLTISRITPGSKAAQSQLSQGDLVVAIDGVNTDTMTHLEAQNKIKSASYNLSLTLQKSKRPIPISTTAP
Experiment: holdup assay
Design: key: below the threshold = too weak to quantify, mostly under pKd 3.1 to 4
Conditions: plain residues with an end cap or a label only (N-terminal biotin on a linker: ado-ado)

Binder | pKd
KPGKGSETVV [FZD4, Q9ULV1] | below the threshold

Molecular target: T7, DLG3_1, Q92796
T7 sequence (Q92796 125-227, limits assumed, looked up): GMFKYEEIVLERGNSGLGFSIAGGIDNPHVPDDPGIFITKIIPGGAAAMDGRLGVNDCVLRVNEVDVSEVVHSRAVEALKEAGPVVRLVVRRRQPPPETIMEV
Experiment: holdup assay
Design: key: below the threshold = too weak to quantify, mostly under pKd 3.1 to 4
Conditions: plain residues with an end cap or a label only (N-terminal biotin on a linker: ado-ado)

Binder | pKd
KPGKGSETVV [FZD4, Q9ULV1] | 4.28

Molecular target: T8, MPDZ_12, O75970
T8 sequence (O75970 1857-1958, limits assumed, looked up): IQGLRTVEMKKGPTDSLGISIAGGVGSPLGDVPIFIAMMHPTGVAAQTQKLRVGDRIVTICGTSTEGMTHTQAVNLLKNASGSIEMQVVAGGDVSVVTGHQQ
Experiment: holdup assay
Design: key: below the threshold = too weak to quantify, mostly under pKd 3.1 to 4
Conditions: plain residues with an end cap or a label only (N-terminal biotin on a linker: ado-ado)

Binder | pKd
KPGKGSETVV [FZD4, Q9ULV1] | below the threshold

Molecular target: T9, LIN7B, Q9HAP6
T9 sequence (Q9HAP6 88-185, limits assumed, looked up): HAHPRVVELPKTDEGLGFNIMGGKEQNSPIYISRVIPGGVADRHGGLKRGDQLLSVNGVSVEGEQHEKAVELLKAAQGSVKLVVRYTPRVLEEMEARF
Experiment: holdup assay
Design: key: below the threshold = too weak to quantify, mostly under pKd 3.1 to 4
Conditions: plain residues with an end cap or a label only (N-terminal biotin on a linker: ado-ado)

Binder | pKd
KPGKGSETVV [FZD4, Q9ULV1] | below the threshold

Molecular target: FRMPD2_3, Q68DX3
Sequence (Q68DX3 1073-1166): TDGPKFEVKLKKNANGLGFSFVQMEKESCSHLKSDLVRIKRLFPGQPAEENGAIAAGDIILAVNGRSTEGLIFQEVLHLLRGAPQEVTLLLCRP
Experiment: holdup assay
Design: key: below the threshold = too weak to quantify, mostly under pKd 3.1 to 4
Conditions: plain residues with an end cap or a label only (N-terminal biotin on a linker: ado-ado)

Binder | pKd
KPGKGSETVV [FZD4, Q9ULV1] | below the threshold

Molecular target: T10, MPDZ_5, O75970
T10 sequence (O75970 695-796, limits assumed, looked up): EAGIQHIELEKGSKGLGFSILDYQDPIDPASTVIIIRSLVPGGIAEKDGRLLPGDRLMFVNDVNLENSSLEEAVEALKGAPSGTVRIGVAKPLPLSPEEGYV
Experiment: holdup assay
Design: key: below the threshold = too weak to quantify, mostly under pKd 3.1 to 4
Conditions: plain residues with an end cap or a label only (N-terminal biotin on a linker: ado-ado)

Binder | pKd
KPGKGSETVV [FZD4, Q9ULV1] | below the threshold

Molecular target: GRID2IP_1, A4D2P6
Sequence (A4D2P6 1-87): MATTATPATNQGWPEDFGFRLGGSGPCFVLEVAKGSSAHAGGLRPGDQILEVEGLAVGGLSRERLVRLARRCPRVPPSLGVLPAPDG
Experiment: holdup assay
Design: key: below the threshold = too weak to quantify, mostly under pKd 3.1 to 4
Conditions: plain residues with an end cap or a label only (N-terminal biotin on a linker: ado-ado)

Binder | pKd
KPGKGSETVV [FZD4, Q9ULV1] | below the threshold

Molecular target: TJP1_3, Q07157
Sequence (Q07157 416-512): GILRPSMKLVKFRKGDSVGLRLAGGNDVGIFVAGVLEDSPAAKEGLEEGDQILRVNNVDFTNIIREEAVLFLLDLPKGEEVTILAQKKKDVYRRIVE
Experiment: holdup assay
Design: key: below the threshold = too weak to quantify, mostly under pKd 3.1 to 4
Conditions: plain residues with an end cap or a label only (N-terminal biotin on a linker: ado-ado)

Binder | pKd
KPGKGSETVV [FZD4, Q9ULV1] | below the threshold

Molecular target: T11, PDZRN3_1, Q9UPQ7
T11 sequence (Q9UPQ7 244-349, limits assumed, looked up): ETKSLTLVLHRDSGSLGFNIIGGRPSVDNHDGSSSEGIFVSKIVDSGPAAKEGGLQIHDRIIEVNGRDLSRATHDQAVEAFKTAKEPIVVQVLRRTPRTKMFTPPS
Experiment: holdup assay
Design: key: below the threshold = too weak to quantify, mostly under pKd 3.1 to 4
Conditions: plain residues with an end cap or a label only (N-terminal biotin on a linker: ado-ado)

Binder | pKd
KPGKGSETVV [FZD4, Q9ULV1] | 3.71

Molecular target: SCRIB_1, Q14160
Sequence (Q14160 718-814): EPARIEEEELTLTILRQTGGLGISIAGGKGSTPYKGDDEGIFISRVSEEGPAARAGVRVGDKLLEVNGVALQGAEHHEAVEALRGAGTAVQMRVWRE
Experiment: holdup assay
Design: key: below the threshold = too weak to quantify, mostly under pKd 3.1 to 4
Conditions: plain residues with an end cap or a label only (N-terminal biotin on a linker: ado-ado)

Binder | pKd
KPGKGSETVV [FZD4, Q9ULV1] | 4.04

Molecular target: Inadl_5, Q8NI35
Sequence (Q8NI35 673-780): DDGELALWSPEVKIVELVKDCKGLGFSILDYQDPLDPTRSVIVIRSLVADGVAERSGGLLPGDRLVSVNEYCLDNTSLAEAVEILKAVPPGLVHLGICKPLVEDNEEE
Experiment: holdup assay
Design: key: below the threshold = too weak to quantify, mostly under pKd 3.1 to 4
Conditions: plain residues with an end cap or a label only (N-terminal biotin on a linker: ado-ado)

Binder | pKd
KPGKGSETVV [FZD4, Q9ULV1] | below the threshold

Molecular target: T12, MPDZ_10, O75970
T12 sequence (O75970 1624-1722, limits assumed, looked up): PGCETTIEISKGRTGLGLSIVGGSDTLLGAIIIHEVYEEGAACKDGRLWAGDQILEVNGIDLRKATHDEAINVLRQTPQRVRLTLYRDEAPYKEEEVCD
Experiment: holdup assay
Design: key: below the threshold = too weak to quantify, mostly under pKd 3.1 to 4
Conditions: plain residues with an end cap or a label only (N-terminal biotin on a linker: ado-ado)

Binder | pKd
KPGKGSETVV [FZD4, Q9ULV1] | below the threshold
